According to patent US20040121947A1, “Compounds which inhibit beta-secretase activity and methods of use thereof” (Oklahoma Medical Research Foundation, priority 2000, published 2004):
pKi: −log10 of the molar value. *1 amine or outer side, *2 acyl side, *3 side chain or, on linkers, in order; H or OH if unused. Where a SMILES comes first, the peptide text is derived from it. [ ]: non-standard residue; d: D form. The star is where a group is joined. LeuΨ(S-CHOHCH2)Ala = CC(C)C[C@H](N[*:1])[C@@H](O)C[C@@H](C)C(=O)[*:2]; 5FAM = O=C1OC2(c3ccc(O)cc3Oc3cc(O)ccc32)c2ccc(C(=O)*)cc21; Ahx = NCCCCCC(=O)O

Assays:
[1] = Transport of conjugated inhibitors to mouse blood, spleen and brain after i.p. injection
Description: Whole blood cells (with EDTA as anti-coagulant in the syringe or in the capillary tube) were isolated from anesthetized animals from the orbital artery or by heart puncture and diluted 1:10 in PBS. Prior to the harvest of other tissue samples, animals were anesthetized and perfused with 150 ml of neutral-buffered 10% formalin. Spleens were harvested intact. Brains were harvested and cerebral hemispheres separated, one for sectioning by cryostat, the other for single cell isolation for flow cytometry.
Sections of the brain hemispheres were obtained by soaking in OCT/PBS at 4° C. for overnight, recovered and frozen in Histo Prep Media.
To collect single cell suspensions, spleens and brain hemispheres were homogenized through a 30 μm screen and directly analyzed by flow cytometric analysis.

HEK293 cells = experiment: Penetration of fluorescently labelled inhibitors into cultured cells (flow cytometry); type: cell-based, human; details: incubation 10 to 30 minutes
Description: Fluorescently labelled inhibitors or fluorescein (Fs) as a control were incubated with suspended cells for time intervals ranging from 10 to 30 minutes. Cells were fixed with paraformaldehyde and permeabilized in 0.2% Tween-20 in PBS for 6 minutes and incubated with anti-fluorescein-Alexa™ 488 antibody (Molecular Probes, Eugene, Oreg.) in order to enhance detection of intracellular inhibitor present from penetration. Flow cytometry (FACSCalibur™) and confocal fluorescent microscopy (Leica TCS NT™) were performed at the Flow and Image Cytometry Lab, OUHSC.

memapsin 2 = target: T1, memapsin 2 (Homo sapiens, UniProt P56817); experiment: Inhibition of memapsin 2 proteolytic activity, fluorogenic substrate FS-2; type: biochemical; details: memapsin 2, carrier peptide-inhibitor conjugates; read-out: Ki apparent
T1 construct: pET-11 vector-derived residues 1-15 of promemapsin 2-T1 (N, cleaved yes); made in house; host or cells: E. coli
T1 sequence (P56817 41-454 limits assumed): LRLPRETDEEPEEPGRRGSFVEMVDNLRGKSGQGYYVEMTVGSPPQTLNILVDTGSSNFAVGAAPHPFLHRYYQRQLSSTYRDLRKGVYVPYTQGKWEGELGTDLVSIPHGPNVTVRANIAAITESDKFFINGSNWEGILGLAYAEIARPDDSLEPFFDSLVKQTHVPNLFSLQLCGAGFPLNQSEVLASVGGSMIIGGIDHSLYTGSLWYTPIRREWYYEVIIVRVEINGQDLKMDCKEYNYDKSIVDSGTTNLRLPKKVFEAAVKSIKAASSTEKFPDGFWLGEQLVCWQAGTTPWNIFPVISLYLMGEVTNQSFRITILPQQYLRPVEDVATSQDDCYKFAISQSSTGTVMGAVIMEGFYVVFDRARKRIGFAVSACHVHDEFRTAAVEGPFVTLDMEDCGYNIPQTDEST
How it was run: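 Spontaneously activated memapsin 2 (80 nM final) equilibrated with inhibitor (about 10 nM–10 μM) in 0.1 M NaOAc pH 4.0 with 10% DMSO for 20 min at 37 °C, with fluorogenic substrate FS-2. Ki converted from Ki apparent using substrate concentration and Km.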

[2] = Martin et al. 1999; cited from earlier work

| Structure (SMILES) | Uptake into brain tissue ([1]; 8 hours after i.p. injection, flow cytometry or confocal microscopy) | Splenocytes with fluorescence peak shift ([1]; splenectomy 2 hours after i.p. injection) [%] | Blood cells with strong fluorescence signal ([1]; whole blood 20 minutes after i.p. injection, 0.3 nmol) | Penetration of cultured cells (intracellular fluorescence) (HEK293 cells) | pKi (memapsin 2) | Splenocytes with fluorescence peak shift ([1]; mouse, in vivo, ip) [%] | Crossing of the blood-brain barrier [2] |
| --- | --- | --- | --- | --- | --- | --- | --- |
| CC(C)C[C@H](NC(=O)[C@H](CC(N)=O)NC(=O)[C@@H](NC(=O)[C@H](CCC(=O)O)NC(=O)CCCCCNC(=O)c1ccc2c(c1)C(=O)OC21c2ccc(O)cc2Oc2cc(O)ccc21)C(C)C)[C@@H](O)C[C@@H](C)C(=O)N[C@@H](C)C(=O)N[C@@H](CCC(=O)O)C(=O)N[C@@H](Cc1ccccc1)C(=O)NCC(=O)N[C@@H](Cc1ccc(O)cc1)C(=O)NCC(=O)N[C@@H](CCCNC(=N)N)C(=O)N[C@@H](CCCCN)C(=O)N[C@@H](CCCCN)C(=O)N[C@@H](CCCNC(=N)N)C(=O)N[C@@H](CCCNC(=N)N)C(=O)N[C@@H](CCC(N)=O)C(=O)N[C@@H](CCCNC(=N)N)C(=O)N[C@@H](CCCNC(=N)N)C(=O)N[C@@H](CCCNC(=N)N)C(=O)O [CPI-1] ({5FAM-Ahx}-EVN[LeuΨ(S-CHOHCH2)Ala]AEFGYGRKKRRQRRR-OH) | penetration of the fluorescent conjugate into all brain cells | ~100 | approximately 100% | readily penetrated cultured cells within minutes | 7.41 | – | – |
| CC(C)C[C@H](NC(=O)[C@H](CCC(=O)O)NC(=O)CCCCCNC(=O)c1ccc2c(c1)C(=O)OC21c2ccc(O)cc2Oc2cc(O)ccc21)C(=O)N[C@@H](CC(=O)O)C(=O)N[C@@H](CC(C)C)[C@@H](O)C[C@@H](C)C(=O)N[C@H](C(=O)N[C@@H](CCC(=O)O)C(=O)N[C@@H](Cc1ccccc1)C(=O)NCC(=O)NCC(=O)N[C@H](CCCNC(=N)N)C(=O)N[C@H](CCCNC(=N)N)C(=O)N[C@H](CCCNC(=N)N)C(=O)N[C@H](CCCNC(=N)N)C(=O)N[C@H](CCCNC(=N)N)C(=O)N[C@H](CCCNC(=N)N)C(=O)N[C@H](CCCNC(=N)N)C(=O)N[C@H](CCCNC(=N)N)C(=O)N[C@H](CCCNC(=N)N)C(=O)O)C(C)C [CPI-2] ({5FAM-Ahx}-ELD[LeuΨ(S-CHOHCH2)Ala]VEFGG[dR][dR][dR][dR][dR][dR][dR][dR][dR]-OH) | – | – | – | readily penetrated cultured cells within minutes | 7.24 | ~100 | – |
| CC(C)(C)NC(=O)[C@@H]1CN(Cc2cccnc2)CCN1C[C@@H](O)C[C@@H](Cc1ccccc1)C(=O)N[C@H]1c2ccccc2C[C@H]1O [indinavir] | – | – | – | – | – | – | can cross the blood-brain barrier |
